US20110301073, “Novel DNA-binding proteins and uses thereof” (Sangamo BioSciences, Inc., published 2011)

What was measured:
[1] = biological target: T1, TALE13 +28 FokI (Xanthomonas axonopodis (engineered)); test: cleavage_in_vitro; two inverted sites, 16 bp gap; NEB Buffer 2, 37 C; settings: tags: FLAG, NLS, chain copies: 2
T1 chain: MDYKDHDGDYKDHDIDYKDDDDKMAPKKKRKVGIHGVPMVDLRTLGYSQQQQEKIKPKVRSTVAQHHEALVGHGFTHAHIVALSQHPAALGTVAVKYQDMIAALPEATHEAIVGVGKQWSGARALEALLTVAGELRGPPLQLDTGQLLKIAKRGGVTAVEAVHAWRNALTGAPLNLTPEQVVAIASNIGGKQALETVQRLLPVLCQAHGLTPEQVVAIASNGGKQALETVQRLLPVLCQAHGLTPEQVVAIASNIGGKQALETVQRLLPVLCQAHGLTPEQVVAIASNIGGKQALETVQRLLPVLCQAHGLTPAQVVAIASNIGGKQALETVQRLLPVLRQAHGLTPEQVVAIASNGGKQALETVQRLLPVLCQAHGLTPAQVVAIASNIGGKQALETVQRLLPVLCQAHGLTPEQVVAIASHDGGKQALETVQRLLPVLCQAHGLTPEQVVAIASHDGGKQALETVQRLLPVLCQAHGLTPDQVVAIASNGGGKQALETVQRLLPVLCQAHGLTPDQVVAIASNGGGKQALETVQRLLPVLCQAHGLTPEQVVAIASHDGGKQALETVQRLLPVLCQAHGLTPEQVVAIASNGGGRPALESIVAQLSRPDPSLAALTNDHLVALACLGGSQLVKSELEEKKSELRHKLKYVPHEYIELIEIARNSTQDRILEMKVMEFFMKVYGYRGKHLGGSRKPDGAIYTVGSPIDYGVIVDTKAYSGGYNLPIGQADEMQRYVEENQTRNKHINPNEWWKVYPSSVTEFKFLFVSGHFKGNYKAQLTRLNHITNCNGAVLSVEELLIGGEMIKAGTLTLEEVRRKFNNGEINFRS
Procedure: (§1) TALE domain fusions were also constructed using Fold cleavage half domains. For these examples, wild type FokI half cleavage domains were used so that for nuclease activity, a homodimer must be formed from two of the fusions. For these fusions, the TALE13 DNA binding domain was fused to each FokI half domain by cloning the TALE DNA binding domain into a plasmid adjacent to FokI-specifying sequence. In addition, various linkers were tested for use between the DNA binding domain and the nuclease domain. Linkers L2 and L8 were used which are as follows: L2=GS (SEQ ID NO:71) and L8=[…] (SEQ ID NO:72). The target sites were cloned into a TOPO2.1 target vector (Invitrogen) with varying gap spacings between each target binding site such that the two were separated from each other by 2 to 22 bp. PCR amplification of an approximately 1 kb region of the target vector was done to generate the target DNAs. The TALE DNA binding domains were also truncated as described previously, and are described using the same nomenclature as described above in Examples 2 and 6. The TALE domain nuclease fusion clones were expressed in the TNT Rabbit Reticulocyte Lysate system by adding 5 μL of water containing 250 nanograms of the nuclease fusion clone plasmid to 20 μL of lysate and incubating at 30° C. for 90 minutes.
(§2) The lysate was then used to cleave the target DNAs as follows: 2.5 μL of lysate were added to a 50 μL reaction containing 50 nanograms of PCR-amplified target DNA and a final Buffer 2 (New England Biolabs) concentration of 1×. The cleavage reaction was for one hour at 37° C., followed by a 20 minute heat inactivation stage at 65° C. The reaction was then centrifuged at high speed to separate the target DNA from the lysate, causing the lysate to condense into a pellet in the reaction well. The DNA-containing supernatant was pipetted off and run on an ethidium bromide-stained agarose gel (Invitrogen) to separate intact target DNA from cleaved target DNA. The agarose gel was then analyzed using AlphaEaseFC (Alpha Innotech) software to measure the amount of target DNA present in the large uncleaved DNA band and the two smaller DNA bands resulting from a single cleavage event of the target DNA. The percentage of cleaved DNA out of the total amount of target DNA loaded into the gel represents the percent cleavage in each reaction.

[2] = biological target: T2, TALE13 +50 FokI (Xanthomonas axonopodis (engineered)); test: as above; settings: tags: FLAG, NLS, chain copies: 2
T2 chain: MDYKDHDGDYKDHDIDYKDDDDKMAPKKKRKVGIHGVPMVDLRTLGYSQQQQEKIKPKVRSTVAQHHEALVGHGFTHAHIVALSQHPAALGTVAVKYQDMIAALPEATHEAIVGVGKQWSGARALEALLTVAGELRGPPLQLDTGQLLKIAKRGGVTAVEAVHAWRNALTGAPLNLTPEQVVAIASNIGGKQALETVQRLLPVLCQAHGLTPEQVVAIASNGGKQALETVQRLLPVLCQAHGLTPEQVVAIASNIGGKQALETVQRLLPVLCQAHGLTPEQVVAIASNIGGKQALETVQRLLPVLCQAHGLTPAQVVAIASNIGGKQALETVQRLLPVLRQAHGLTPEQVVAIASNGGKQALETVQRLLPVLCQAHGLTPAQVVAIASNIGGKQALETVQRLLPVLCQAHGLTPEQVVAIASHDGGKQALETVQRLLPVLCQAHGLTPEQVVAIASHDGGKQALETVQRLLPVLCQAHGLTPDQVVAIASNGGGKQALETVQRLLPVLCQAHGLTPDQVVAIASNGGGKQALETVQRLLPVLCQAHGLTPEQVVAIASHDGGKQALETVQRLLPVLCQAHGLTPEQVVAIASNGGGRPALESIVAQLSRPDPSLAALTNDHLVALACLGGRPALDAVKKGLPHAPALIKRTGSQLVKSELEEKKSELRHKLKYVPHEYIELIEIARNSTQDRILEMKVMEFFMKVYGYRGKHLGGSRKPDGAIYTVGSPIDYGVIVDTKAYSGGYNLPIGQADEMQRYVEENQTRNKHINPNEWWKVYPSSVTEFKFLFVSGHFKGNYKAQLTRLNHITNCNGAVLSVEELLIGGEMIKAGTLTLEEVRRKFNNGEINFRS
Procedure: as §1, §2

B1: TALE13 target (dsDNA)
DNA 1: TATAAATACCTTCT
DNA 2: AGAAGGTATTTATA
[1]
  activity: 100 % cleavage
[2]
  activity: 83 % cleavage
